Reference: patent publication US20060234285A1 (Human Genome Sciences, published 2006)

Key:
Assay in all cases: flow cytometry on transiently transfected cells
[1] = biological target: T1, BCMA, on transiently transfected cells (UniProt Q02223 1-184, limits assumed)
T1 construct: whole, on cells
T1 sequence (looked up): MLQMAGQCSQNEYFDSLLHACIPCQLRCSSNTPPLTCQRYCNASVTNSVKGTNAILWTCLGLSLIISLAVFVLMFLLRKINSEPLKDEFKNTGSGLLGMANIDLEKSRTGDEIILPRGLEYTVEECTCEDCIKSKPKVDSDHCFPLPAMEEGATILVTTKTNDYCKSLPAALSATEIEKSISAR
Procedure: (§1) One million cells, in 0.1 ml of FACS buffer (PBS, 0.1% BSA, 0.1% NaN₃), were incubated with 0.1-1 microgram of protein or antibody at RT for 15 min. The cells were washed with 3 ml of FACS buffer, reacted with biotinylated primary antibody, and stained with PE-conjugated secondary antibody at RT for 15 min. Cells were then washed again, resuspended in 0.5 microgram/ml of propidium iodide, and live cells were gated and analyzed on a FACScan using the CellQuest software (BD Biosciences).

[2] = biological target: T2, LTβR, on transiently transfected cells (UniProt P36941 31-435)
T2 construct: whole, on cells
Procedure: as §1

[3] = biological target: T3, RANK, on transiently transfected cells (UniProt Q9Y6Q6 30-616, limits assumed)
T3 construct: whole, on cells
T3 sequence (looked up): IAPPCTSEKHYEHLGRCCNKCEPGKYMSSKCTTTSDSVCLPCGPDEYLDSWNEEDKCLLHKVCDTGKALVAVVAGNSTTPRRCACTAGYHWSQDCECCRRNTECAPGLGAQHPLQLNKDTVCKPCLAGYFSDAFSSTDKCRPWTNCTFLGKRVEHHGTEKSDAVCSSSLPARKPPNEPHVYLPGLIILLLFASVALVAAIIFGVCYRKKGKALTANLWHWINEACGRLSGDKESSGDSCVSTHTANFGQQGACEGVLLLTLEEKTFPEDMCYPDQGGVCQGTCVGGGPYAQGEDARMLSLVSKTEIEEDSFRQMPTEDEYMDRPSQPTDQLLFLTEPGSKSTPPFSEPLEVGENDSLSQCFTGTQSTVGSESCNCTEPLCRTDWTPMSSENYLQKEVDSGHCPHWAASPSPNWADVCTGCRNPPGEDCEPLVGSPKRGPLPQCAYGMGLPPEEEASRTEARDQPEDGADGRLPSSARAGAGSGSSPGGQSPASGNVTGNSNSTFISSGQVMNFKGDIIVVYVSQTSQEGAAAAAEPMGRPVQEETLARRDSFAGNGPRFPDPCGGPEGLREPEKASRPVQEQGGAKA
Procedure: as §1

[4] = biological target: T4, DR6, on transiently transfected cells (UniProt O75509 42-655, limits assumed)
T4 construct: whole, on cells
T4 sequence (looked up): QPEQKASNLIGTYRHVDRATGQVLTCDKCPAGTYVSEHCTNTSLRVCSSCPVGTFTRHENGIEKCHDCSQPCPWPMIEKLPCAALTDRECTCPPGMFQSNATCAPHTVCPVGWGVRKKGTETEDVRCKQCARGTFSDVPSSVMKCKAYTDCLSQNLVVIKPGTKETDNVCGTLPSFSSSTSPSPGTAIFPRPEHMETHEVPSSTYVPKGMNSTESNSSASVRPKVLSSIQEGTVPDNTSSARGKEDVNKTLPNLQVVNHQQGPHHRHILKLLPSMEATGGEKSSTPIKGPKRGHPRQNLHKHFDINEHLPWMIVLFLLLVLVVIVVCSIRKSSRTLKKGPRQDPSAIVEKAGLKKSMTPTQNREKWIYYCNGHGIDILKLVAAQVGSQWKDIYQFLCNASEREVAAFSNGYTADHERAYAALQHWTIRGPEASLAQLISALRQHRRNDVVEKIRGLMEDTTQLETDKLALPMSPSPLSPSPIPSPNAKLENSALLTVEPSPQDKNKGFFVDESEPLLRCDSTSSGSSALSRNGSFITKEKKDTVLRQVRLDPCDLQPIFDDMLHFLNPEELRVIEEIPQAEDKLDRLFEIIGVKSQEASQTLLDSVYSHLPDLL
Procedure: as §1

[5] = biological target: T5, DcR1, on transiently transfected cells (UniProt O14798 26-236, limits assumed)
T5 construct: whole, on cells
T5 sequence (looked up): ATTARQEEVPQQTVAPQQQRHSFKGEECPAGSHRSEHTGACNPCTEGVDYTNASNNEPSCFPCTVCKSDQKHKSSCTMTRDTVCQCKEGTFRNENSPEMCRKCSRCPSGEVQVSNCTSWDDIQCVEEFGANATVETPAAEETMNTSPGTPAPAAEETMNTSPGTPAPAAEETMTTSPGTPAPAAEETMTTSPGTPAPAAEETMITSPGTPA
Procedure: as §1

[6] = biological target: T6, CD27, on transiently transfected cells (UniProt P26842 20-260, limits assumed)
T6 construct: whole, on cells
T6 sequence (looked up): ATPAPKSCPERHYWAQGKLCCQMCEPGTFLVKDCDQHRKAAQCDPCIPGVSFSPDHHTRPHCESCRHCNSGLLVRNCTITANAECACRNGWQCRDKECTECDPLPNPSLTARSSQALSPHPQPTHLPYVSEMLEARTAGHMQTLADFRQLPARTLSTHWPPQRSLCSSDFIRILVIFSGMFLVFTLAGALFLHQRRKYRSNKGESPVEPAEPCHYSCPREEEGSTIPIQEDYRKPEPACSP
Procedure: as §1

[7] = biological target: T7, DcR2, on transiently transfected cells (UniProt Q9UBN6 56-386, limits assumed)
T7 construct: whole, on cells
T7 sequence (looked up): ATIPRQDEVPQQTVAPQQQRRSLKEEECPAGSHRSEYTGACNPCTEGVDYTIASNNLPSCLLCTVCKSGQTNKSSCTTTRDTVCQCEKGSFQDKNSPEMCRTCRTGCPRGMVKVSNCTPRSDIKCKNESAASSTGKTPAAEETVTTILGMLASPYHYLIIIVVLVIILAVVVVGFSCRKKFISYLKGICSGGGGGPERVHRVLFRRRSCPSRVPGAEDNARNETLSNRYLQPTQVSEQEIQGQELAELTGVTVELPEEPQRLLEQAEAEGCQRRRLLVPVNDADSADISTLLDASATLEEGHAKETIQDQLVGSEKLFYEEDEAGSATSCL
Procedure: as §1

[8] = biological target: T8, AITR, on transiently transfected cells (UniProt Q9Y5U5 26-241, limits assumed)
T8 construct: whole, on cells
T8 sequence (looked up): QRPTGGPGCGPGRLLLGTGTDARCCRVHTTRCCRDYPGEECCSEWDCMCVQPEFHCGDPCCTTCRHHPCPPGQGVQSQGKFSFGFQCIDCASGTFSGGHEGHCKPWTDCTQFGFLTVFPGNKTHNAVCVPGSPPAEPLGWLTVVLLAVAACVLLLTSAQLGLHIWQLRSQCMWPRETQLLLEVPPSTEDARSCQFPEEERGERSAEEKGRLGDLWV
Procedure: as §1

Measured: binding result

T2 sequence (P36941 31-435): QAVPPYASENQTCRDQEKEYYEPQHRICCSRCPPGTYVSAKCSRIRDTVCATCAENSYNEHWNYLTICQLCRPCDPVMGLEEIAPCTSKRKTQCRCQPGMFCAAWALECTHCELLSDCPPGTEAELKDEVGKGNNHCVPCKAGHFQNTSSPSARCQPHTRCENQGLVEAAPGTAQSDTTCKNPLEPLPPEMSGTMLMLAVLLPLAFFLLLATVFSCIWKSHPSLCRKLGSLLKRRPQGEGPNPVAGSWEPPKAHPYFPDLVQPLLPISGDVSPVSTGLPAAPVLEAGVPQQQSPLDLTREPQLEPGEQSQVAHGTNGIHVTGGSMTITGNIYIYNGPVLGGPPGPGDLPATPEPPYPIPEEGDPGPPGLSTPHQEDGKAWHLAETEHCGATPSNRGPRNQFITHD

B1: FLAG-tagged soluble form of TNF-gamma-beta (aa 72-251) (ligand, human, UniProt O95150 72-251, looked up, not shown: small tags and cut ends)
chain: LKGQEFAPSHQQVYAPLRADGDKPRAHLTVVRQTPTQHFKNQFPALHWEHELGLAFTKNRMNYTNKFLLIPESGDYFIYSQVTFRGMTSECSEIRQAGRPNKPDSITVVITKVTDSYPEPTQLLMGTKSVCEVGSNWFQPIYLGAMFSLQEGDKLMVNVSDISLVDYTKEDKTFFGAFLL
notes: also called FLAG-TL1β; FLAG-TNF-gamma-beta
no binding: all assays above
